Data as given in article PMC8477557 (2021).

Target: αCD123
Experiment: SPR

B1: CD123 extracellular domain (domain or fragment)
chain: TKEDPNPPITNLRMKAKAQQLTWDLNRNVTDIECVKDADYSMPAVNNSYCQFGAISLCEVTNYTVRVANPPFSTWILFPENSGKPWAGAENLTCWIHDVDFLSCSWAVGPGAPADVQYDLYLNVANRRQQYECLHYKTDAQGTRIGCRFDDISRLSSGSQSSHILVRGRSAAFGIPCTDKFVVFSQIEILTPPNMTAKCNKTHSFMHWKMRSHFNRKFRYELQIQKRMQPVITEQVRDRTSFQLLNPGTYTVQIRARERVYEFLSAWSTPQRFECDQEEGANTRAWR
Kd: 1.2 nM
